The assay concerns the target T1, N-terminal effector PYRIN domain of NLRP12 (residues 1-98) (human, UniProt P59046 1-98).
T1 sequence: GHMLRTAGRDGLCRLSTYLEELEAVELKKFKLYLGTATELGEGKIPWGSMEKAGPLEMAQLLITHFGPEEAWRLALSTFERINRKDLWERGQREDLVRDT
The experiment in a line: NMR titration.

This is an account of results in PMC3202057 (Journal of molecular biology, 2011).

B1: FAF-1 UBA domain and linker region (residues 1-99) (domain or fragment, UniProt Q9UNN5 1-99, looked up)
chain: MASNMDREMILADFQACTGIENIDEAITLLEQNNWDLVAAINGVIPQENGILQSEYGGETIPGPAFNPASHPASAPTSSSSSAFRPVMPSRQIVERQPR
The molecule B1 had a Kd of at least 50 µM.

B2: FAF-1 UBA domain (residues 1-57) (domain or fragment, UniProt Q9UNN5 1-57, looked up)
chain: MASNMDREMILADFQACTGIENIDEAITLLEQNNWDLVAAINGVIPQENGILQSEYG
B2: the dissociation constant Kd is at least 150 µM.

In general, Kd refers to a measure of binding affinity in units of concentration.
